# According to PMC9016894, “MdMYB10 affects nitrogen uptake and reallocation by regulating the nitrate transporter MdNRT2.4-1 in red-fleshed apple”:
# T1: MdMYB10-HIS (also printed MdMYB1-HIS) (Malus domestica? (apple), UniProt E2RZU2 1-243)
# T1 sequence: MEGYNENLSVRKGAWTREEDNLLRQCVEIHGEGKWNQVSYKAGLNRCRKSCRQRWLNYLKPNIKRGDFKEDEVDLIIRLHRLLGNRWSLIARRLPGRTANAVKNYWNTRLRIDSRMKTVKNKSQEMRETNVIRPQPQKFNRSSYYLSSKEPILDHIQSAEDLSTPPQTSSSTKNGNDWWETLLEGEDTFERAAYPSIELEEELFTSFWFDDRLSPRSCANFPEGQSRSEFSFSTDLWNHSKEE
# B1: MdNRT2.4-1(MBS-1) (dsDNA)
# DNA 1: TTATAGAGGGTTTTGAGTTGACCGTGTGAAGGGTTGTGAAGAGGC
# DNA 2: GCCTCTTCACAACCCTTCACACGGTCAACTCAAAACCCTCTATAA
# B2: MdNRT2.4-1(MBS-1m) (dsDNA)
# DNA 1: TTATAGAGGGTTTTGAGTTGATTGTGTGAAGGGTTGTGAAGAGGC
# DNA 2: GCCTCTTCACAACCCTTCACACAATCAACTCAAAACCCTCTATAA
# B3: MdNIA2-1(MRE) (dsDNA)
# DNA 1: AAGATTTCAGTTTAACAATTAGGTTGATTAGGAACCGGAACCAAA
# DNA 2: TTTGGTTCCGGTTCCTAATCAACCTAATTGTTAAACTGAAATCTT
# Key:
# Conditions in all cases: protein: recombinant; tags: His (pET32a); blunt
# [1] = biological target: T1, MdMYB10-HIS (also printed MdMYB1-HIS); assay: EMSA; not stated (EMSA as described by Xie et al. [40])
# [2] = biological target: T1, MdMYB10-HIS (also printed MdMYB1-HIS); assay: competition; unlabeled MBS-1m against labeled MBS-1; no competition; not stated (EMSA as described by Xie et al. [40])
# [3] = biological target: T1, MdMYB10-HIS (also printed MdMYB1-HIS); assay: EMSA; shift seen; authors judge it non-specific; not stated (EMSA as described by Xie et al. [40])
binder,measurement,setting,value
B1,binding result,[1],binds
B2,binding result,[2],no binding
B3,binding result,[3],binds
